Reference: patent US20190031764A1 (Janssen / Centocor, published 2019)

T1: Biotinylated human TIM3-Fc fusion from R&D systems (human, UniProt Q8TDQ0 22-200, biotinylated (site not stated))
T1 construct: Bought reagent; also called CD366; not shown: Fc part of the bought fusion
T1 sequence (looked up): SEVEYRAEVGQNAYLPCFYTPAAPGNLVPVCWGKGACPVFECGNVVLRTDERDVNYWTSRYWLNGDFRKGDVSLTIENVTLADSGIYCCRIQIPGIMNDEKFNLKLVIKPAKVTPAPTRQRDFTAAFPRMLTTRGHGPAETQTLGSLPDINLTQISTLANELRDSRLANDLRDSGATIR


Biological target: T2, human PD1 antigen (human, UniProt Q15116 25-167, limits assumed)
T2 construct: Injected as analyte (100 nM-0.4 nM) in the ProteOn SPR assay; construct not described; also called CD279
T2 sequence (Q15116 25-167 limits assumed): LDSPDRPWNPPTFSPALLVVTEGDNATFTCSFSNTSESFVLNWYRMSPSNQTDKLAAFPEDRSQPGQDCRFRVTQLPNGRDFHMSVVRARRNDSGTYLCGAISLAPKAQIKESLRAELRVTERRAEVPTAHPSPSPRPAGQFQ
Experiment: Ag Binding column; PD1 SPR

binding result	Binder
binds	S75D variant of PD1B244 (antibody, V domains shown, Kabat position 74; also called PD1 S75D variant; PD1H170 S75D) VH: QVQLVQSGAEVKKPGSSVKVSCKASGGTFSSYAISWVRQAPGQGLEWMGGIIPIFDTANYAQKFQGRVTITADEDTSTAYMELSSLRSEDTAVYYCARPGLAAAYDTGSLDYWGQGTLVTVSS VL: EIVLTQSPATLSLSPGERATLSCRASQSVRSYLAWYQQKPGQAPRLLIYDASNRATGIPARFSGSGSGTDFTLTISSLEPEDFAVYYCQQRNYWPLTFGQGTKVEIK
binds	S88D variant of PD1B244 (antibody, V domains shown, Kabat position 84; also called PD1 S88D variant; PD1H170 S88D) VH: QVQLVQSGAEVKKPGSSVKVSCKASGGTFSSYAISWVRQAPGQGLEWMGGIIPIFDTANYAQKFQGRVTITADESTSTAYMELSSLRDEDTAVYYCARPGLAAAYDTGSLDYWGQGTLVTVSS VL: EIVLTQSPATLSLSPGERATLSCRASQSVRSYLAWYQQKPGQAPRLLIYDASNRATGIPARFSGSGSGTDFTLTISSLEPEDFAVYYCQQRNYWPLTFGQGTKVEIK
binds	S84D variant of PD1B244 (antibody, V domains shown, Kabat position 82a; also called PD1 S84D variant; PD1H170 S84D) VH: QVQLVQSGAEVKKPGSSVKVSCKASGGTFSSYAISWVRQAPGQGLEWMGGIIPIFDTANYAQKFQGRVTITADESTSTAYMELDSLRSEDTAVYYCARPGLAAAYDTGSLDYWGQGTLVTVSS VL: EIVLTQSPATLSLSPGERATLSCRASQSVRSYLAWYQQKPGQAPRLLIYDASNRATGIPARFSGSGSGTDFTLTISSLEPEDFAVYYCQQRNYWPLTFGQGTKVEIK

Biological target: T1, Biotinylated human TIM3-Fc fusion from …
Experiment: Ag Binding column; TIM3-Fc ELISA

binding result	Binder
binds	A88D variant of TIMB337 (antibody, V domains shown, Kabat position 84; also called TIM3 A88D variant; TM3H24 A88D) VH: not shown VL: EIVLTQSPATLSLSPGERATLSCRASQSVNDYLAWYQQKPGQAPRLLIYDASNRATGIPARFSGSGSGTDFTLTISSLEPEDFAVYYCQQGGHAPITFGQGTKVEIK
binds	N84D variant of TIMB337 (antibody, V domains shown, Kabat position 82a; also called TIM3 N84D variant; TM3H24 N84D) VH: not shown VL: EIVLTQSPATLSLSPGERATLSCRASQSVNDYLAWYQQKPGQAPRLLIYDASNRATGIPARFSGSGSGTDFTLTISSLEPEDFAVYYCQQGGHAPITFGQGTKVEIK
binds	S75D variant of TIMB337 (antibody, V domains shown, Kabat position 74; also called TIM3 S75D variant; TM3H24 S75D) VH: not shown VL: EIVLTQSPATLSLSPGERATLSCRASQSVNDYLAWYQQKPGQAPRLLIYDASNRATGIPARFSGSGSGTDFTLTISSLEPEDFAVYYCQQGGHAPITFGQGTKVEIK
